The target of experiment [1] is human BDCA-2-Fc (hIgG1-Fc-hBDCA-2) (human). Put plainly: ELISA on plate-coated human BDCA2-Fc.
Experiment [2] has as its target BDCA-2 (CLEC4C, CD303) on human plasmacytoid dendritic cells (purified pDC or pDC within PBMC) (human) (UniProt Q8WTT0). Put plainly: cell-based or functional assay.
Experiment [3] concerns the target human BDCA-2-Fc (hIgG1-Fc-hBDCA-2) (human). Put plainly: SPR (BIAcore T200), huBDCA2-Fc immobilised on CM5 chip, mAb injected. A general note: SPR reads the build-up and loss of mass on a sensor chip optically.

Sequence of BDCA-2 (CLEC4C, CD303) on human plasmacytoid dendritic cells (purified pDC or pDC within PBMC) (human) (Q8WTT0 whole entry): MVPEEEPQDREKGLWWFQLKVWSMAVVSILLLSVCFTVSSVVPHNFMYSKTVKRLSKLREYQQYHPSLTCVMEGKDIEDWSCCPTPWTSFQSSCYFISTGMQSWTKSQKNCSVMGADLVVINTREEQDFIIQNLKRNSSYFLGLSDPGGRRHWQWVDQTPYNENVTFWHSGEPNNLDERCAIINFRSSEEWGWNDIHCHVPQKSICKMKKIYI
Sequence of human BDCA-2-Fc (hIgG1-Fc-hBDCA-2) (human) (chain, as listed by the source limits assumed): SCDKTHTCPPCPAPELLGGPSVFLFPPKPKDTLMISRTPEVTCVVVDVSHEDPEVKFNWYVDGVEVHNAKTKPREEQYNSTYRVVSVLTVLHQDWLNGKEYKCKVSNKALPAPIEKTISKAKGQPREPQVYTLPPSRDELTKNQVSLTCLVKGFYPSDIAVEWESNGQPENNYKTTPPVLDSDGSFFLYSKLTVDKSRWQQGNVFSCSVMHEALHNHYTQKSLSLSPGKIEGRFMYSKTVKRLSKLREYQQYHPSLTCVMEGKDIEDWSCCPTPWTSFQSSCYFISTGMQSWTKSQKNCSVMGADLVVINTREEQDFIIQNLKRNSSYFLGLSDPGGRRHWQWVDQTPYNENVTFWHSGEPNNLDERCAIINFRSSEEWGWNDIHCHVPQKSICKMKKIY

For orientation: EC50 means the concentration needed to bring the measured effect to its halfway point. Read a low EC50 as an effect from little substance. By Kd is commonly meant the equilibrium constant for the complex coming apart. A higher Kd goes with weaker binding. In turn, “anti-BDCA-2 mAb AC144 (Miltenyi Biotec, cat. no. 130-090-690) (antibody)” had an EC50 in experiment [1] of 0.27 nM. In experiment [2], this substance yielded an IC50, nM; inhibition of IFNα from ODN stimulated healthy donor PBMC of 1.52 nM; an IC50, ng/ml; inhibition of IFNα from ODN stimulated healthy donor PBMC of 228 ng/mL; an IC90, nM; inhibition of IFNα from ODN stimulated healthy donor PBMC of 13.7 nM; an IC90, ng/ml; inhibition of IFNα from ODN stimulated healthy donor PBMC of 2060 ng/mL. This substance also displayed a Kd in experiment [3] of 2.3 nM.

Source of the values: patent US20220162322A1.
